Assay results reported in patent US20210380703A1 (RIGEL PHARMACEUTICALS, published 2021).

Tests used:
[1] = biological target: T1, human ACVR2A (human, UniProt P27037 20-135, limits assumed); assay: ELISA
T1 construct: coated antigen of the initial ELISA; also called activin receptor, type II A
Procedure, shortened: (§1)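 mAb binding by ELISA; antigens: hu ACVR2A, mu ACVR2A; pos ctrl biotinylated goat anti-hu kappa LC; neg ctrl hu Fc.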
T1 sequence (P27037 20-135 limits assumed): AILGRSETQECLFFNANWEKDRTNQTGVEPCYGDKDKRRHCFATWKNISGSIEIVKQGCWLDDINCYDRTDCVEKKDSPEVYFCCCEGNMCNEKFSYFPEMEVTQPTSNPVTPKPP

[2] = biological target: T2, mouse ACVR2A (mouse, UniProt P27038 20-135, limits assumed); assay: ELISA
T2 construct: coated antigen of the initial ELISA
Procedure, shortened: as §1
T2 sequence (P27038 20-135 limits assumed): as the sequence (P27037 20-135 limits assumed) above, with K20R, V73I counted along it

[3] = biological target: T3, biotinylated goat anti-human kappa light chain; assay: ELISA, positive control
T3 construct: positive control of the ELISA
Method: The binding of ACVR2A-specific monoclonal antibodies to human ACVR2A, mouse ACVR2A, biotinylated goat anti-human kappa light chain (positive control) and human Fc (negative control) were determined by ELISA.

[4] = biological target: human ACVR2A (human, UniProt P27037 20-135, limits assumed); assay: ELISA
Procedure, shortened: as §1
Target sequence in this assay (P27037 20-135 limits assumed): as the sequence (P27037 20-135 limits assumed) above

[5] = biological target: mouse ACVR2A (mouse, UniProt P27038 20-135, limits assumed); assay: ELISA
Procedure, shortened: as §1
Target sequence in this assay (P27038 20-135 limits assumed): as the sequence (P27037 20-135 limits assumed) above, with K20R, V73I counted along it

[6] = biological target: T4, biotinylated goat anti-human kappa light chain; assay: ELISA; positive control
T4 construct: Positive control of the ELISA
Procedure, shortened: as §1
Further: test concentration or dose not given here.

Binder	optical density [1]	optical density [2]	optical density [3]	optical density [4]	optical density [5]	optical density [6]
375_E10 (antibody, V domains shown, Group III) VH: EVQLLESGGGLVQPGGSLRLSCAASGFTFSSYSMNWVRQAPGKGLEWVSGINYNGGYTSYADSVKGRFTISRDNSKNTLYLQMNSLRAEDTAVYYCARGANWHDTALDYWGQGTLVTVSS VL: DIQMTQSPSSLSASVGDRVTITCRASQSILSYLNWYQQKPGKAPKLVIYAATSRASGVPSRFSGSGSGTDFTLTISSLQPEDFATYYCQQSYDNPLTFGGGTKVEIK	3.69 OD	3.79 OD	3.29 OD			
375_D04 (antibody, V domains shown, VH/VL only) VH: EVQLLESGGGLVQPGGSLRLSCAASGFTFDDSSMHWVRQAPGKGLEWVSNINYNGGYTGYADSVKGRFTISRDNSKNTLYLQMNSLRAEDTAVYYCAKSANWHDTALDYWGQGTLVTVSS VL: DIQMTQSPSSLSASVGDRVTITCRASQSILSYVNWYQQKPGKAPKLVIYAATSRASGVPSRFSGSGSGTDFTLTISSLQPEDFATYYCQQSYELPLTFGGGTKVEIK				3.69 OD	3.7 OD	3.17 OD
374_F02 (antibody, V domains shown, VH/VL only) VH: EVQLLESGGGLVQPGGSLRLSCAASGFTFDSYSMNWVRQAPGKGLEWVANINYNSGYTSYADSVKGRFTISRDNSKNTLYLQMNSLRAEDTAVYYCARSANWHDTALDYWGQGTLVTVSS VL: DIQMTQSPSSLSASVGDRVTITCRASQSIVSYLNWYQQKPGKAPKLLIYAASSLQSGVPSRFSGSGSGTDFTLTISSLQPEDFATYYCQQSYELPLTFGGGTKVEIK				3.56 OD	3.59 OD	3.16 OD
367_A12 (antibody, V domains shown, Group III) VH: EVQLLESGGGLVQPGGSLRLSCAASGFTFSSYGMNWVRQAPGKGLEWVSGINYNSGYTSYADSVKGRFTISRDNSKNTLYLQMNSLRAEDTAVYYCARGANWHDTHLDYWGQGTLVTVSS VL: DIQMTQSPSSLSASVGDRVTITCRASQSILSYLNWYQQKPGKAPKLLIYAATSLHSGVPSRFSGSGSGTDFTLTISSLQPEDFATYYCQQSYNNPLTFGGGTKVEIK	2.44 OD	2.42 OD	3.65 OD			
367_B04 (antibody, V domains shown, Group III) VH: EVQLLESGGGLVQPGGSLRLSCAASGFTFDSYSMNWVRQAPGKGLEWVSGINYNSGYKSYADSVKGRFTISRDNSKNTLYLQMNSLRAEDTAVYYCARGANWHDTHLDYWGQGTLVTVSS VL: DIQMTQSPSSLSASVGDRVTITCRASQSILSYLNWYQQKPGKAPKLLIYAATSRASGVPSRFSGSGSGTDFTLTISSLQPEDFATYYCQQSYELPLTFGGGTKVEIK	2.66 OD	3.1 OD	3.34 OD			
367_A10 (antibody, V domains shown, Group III) VH: EVQLLESGGGLVQPGGSLRLSCAASGFTFSSYGMNWVRQAPGKGLEWVAGINYNSGYTSYADSVKGRFTISRDNSKNTLYLQMNSLRAEDTAVYYCARGANWHDTHLDYWGQGTLVTVSS VL: DIQMTQSPSSLSASVGDRVTITCRASQSIITYVNWYQQKPGKAPKLLIYAATSLASGVPSRFSGSGSGTDFTLTISSLQPEDFATYYCQQSYDLPLTFGGGTKVEIK	1.89 OD	2.16 OD	3.39 OD			
367_B01 (antibody, V domains shown, Group III) VH: EVQLLESGGGLVQPGGSLRLSCAASGFTFSSYSMNWVRQAPGKGLEWVAGINYNGGYKGYADSVKGRFTISRDNSKNTLYLQMNSLRAEDTAVYYCARGANWHDTALDYWGQGTLVTVSS VL: DIQMTQSPSSLSASVGDRVTITCRASQSISSYVNWYQQKPGKAPKLVIYAATSRASGVPSRFSGSGSGTDFTLTISSLQPEDFATYYCQQSYSTPLTFGGGTKVEIK	2.84 OD	2.91 OD	3.67 OD			

Other lines, results leading:

optical density [1]	optical density [2]	optical density [3]	optical density [4]	optical density [5]	optical density [6]	Binder
			3.07 OD	3.29 OD	3.42 OD	376_F04 (antibody, V domains shown, VH/VL only) VH: EVQLLESGGGLVQPGGSLRLSCAASGFTFDSYSMNWVRQAPGKGLEWVSNINYNSGYTGYADSVKGRFTISRDNSKNTLYLQMNSLRAEDTAVYYCARSANWHDTALDYWGQGTLVTVSS VL: not shown
			3.29 OD	3.47 OD	3.44 OD	376_F03 (antibody, V domains shown, VH/VL only) VH: EVQLLESGGGLVQPGGSLRLSCAASGFTFDSYGMNWVRQAPGKGLEWVANINYNGGYTGYADSVKGRFTISRDNSKNTLYLQMNSLRAEDTAVYYCARSANWHDTALDYWGQGTLVTVSS VL: DIQMTQSPSSLSASVGDRVTITCRASQSIITYVNWYQQKPGKAPKLVIYATTSLASGVPSRFSGSGSGTDFTLTISSLQPEDFATYYCQQSYSSPLTFGGGTKVEIK
			3.68 OD	3.65 OD	3.45 OD	376_G09 (antibody, V domains shown, VH/VL only) VH: EVQLLESGGGLVQPGGSLRLSCAASGFTFDSYSMNWVRQAPGKGLEWVSGINYNSGYKGYADSVKGRFTISRDNSKNTLYLQMNSLRAEDTAVYYCARSANWHDTALDYWGQGTLVTVSS VL: DIQMTQSPSSLSASVGDRVTITCRASQSISYYLNWYQQKPGKAPKLLIYAVTSRASGVPSRFSGSGSGTDFTLTISSLQPEDFATYYCQQSYDNPLTFGGGTKVEIK
			3.28 OD	3.29 OD	3.54 OD	376_H10 (antibody, V domains shown, VH/VL only) VH: EVQLLESGGGLVQPGGSLRLSCAASGFTFDSYSMNWVRQAPGKGLEWVSGINYNSGYKSYADSVKGRFTISRDNSKNTLYLQMNSLRAEDTAVYYCARSANWHDTALDYWGQGTLVTVSS VL: DIQMTQSPSSLSASVGDRVTITCRASQSILTYLNWYQQKPGKAPKLVIYAATSRHSGVPSRFSGSGSGTDFTLTISSLQPEDFATYYCQQSYDSPLTFGGGTKVEIK
			3.13 OD	3.25 OD	3.44 OD	376_F12 (antibody, V domains shown, VH/VL only) VH: EVQLLESGGGLVQPGGSLRLSCAASGFTFDDYSMNWVRQAPGKGLEWVAGINYNGGYKSYADSVKGRFTISRDNSKNTLYLQMNSLRAEDTAVYYCARSATWHDTHLDYWGQGTLVTVSS VL: not shown
			3.32 OD	3.3 OD	3.46 OD	376_H09 (antibody, V domains shown, VH/VL only) VH: EVQLLESGGGLVQPGGSLRLSCAASGFTFSDYSMNWVRQAPGKGLEWVANINYNGGYTGYADSVKGRFTISRDNSKNTLYLQMNSLRAEDTAVYYCARSANWHDTALDYWGQGTLVTVSS VL: DIQMTQSPSSLSASVGDRVTITCRASQSIITYLNWYQQKPGKAPKLVIYYVSNLPSGVPSRFSGSGSGTDFTLTISSLQPEDFATYYCQQSYDSPLTFGGGTKVEIK
			3.69 OD	3.64 OD	3.47 OD	376_G08 (antibody, V domains shown, VH/VL only) VH: EVQLLESGGGLVQPGGSLRLSCAASGFTFDSYGMNWVRQAPGKGLEWVANINYNGGYTSYADSVKGRFTISRDNSKNTLYLQMNSLRAEDTAVYYCARSANWHDTALDYWGQGTLVTVSS VL: DIQMTQSPSSLSASVGDRVTITCRASQSILSYVNWYQQKPGKAPKLVIYAATSRASGVPSRFSGSGSGTDFTLTISSLQPEDFATYYCQQSYDTPLTFGGGTKVEIK
